Measurements published in US20110319338A1, “PEPTIDES THAT BIND EUKARYOTIC TRANSLATION INITIATION FACTOR 4E” (The Board of Regents of the University of Texas System, priority 2008, published 2011).
Read-outs that look alike come from different tables or passages of the source.

Tests used:
[1] = biological target: T1, binding of eIF4E to eIF4G (Homo sapiens, UniProt P06730); assay: Immunoprecipitation with eIF4E antibody and Western blot with eIF4G antibody, OVCAR-3 cell lysate incubated with peptide; details: peptide 3 micromoles per liter, 250 micrograms OVCAR-3 cell lysate
T1 construct: endogenous in cells; host or cells: OVCAR-3 cell lysate
Method: (§1) FIGS. 1A-1G. 4EBP peptides bind eIF4E and inhibit binding of eIF4E to eIF4G. (FIG. 1A) Sequences of peptides comprising residues 49 to 68 of 4EBP1 and 4EBP2. (FIG. 1B) Biotinylated peptides (3 micromoles per liter) were incubated with 250 micrograms of OVCAR-3 cell lysate. Peptides were pulled-down using streptavidin-agarose. Precipitates (P) and supernatants (S) were analyzed by Western blot using eIF4E antibody. In (FIG. 1C), immunoprecipitation was performed using eIF4E antibody, and Western blot performed using eIF4G antibody. (FIG. 1D) Sequences of wild-type and mutant 4EBP peptides fused to TAT (mutant residues are highlighted). (FIG. 1E) OVCAR-3 cells were treated with biotinylated peptides (3 micromoles per liter, final concentration) for 16 hours. Internalized peptides were detected by staining fixed cells with Texas Red-conjugated streptavidin. Nuclei were visualized by staining with 4′,6-Diamidino-2-Phenylindole (DAPI). (FIGS. 1F and 1G) OVCAR-3 cell lysates were incubated with peptides as described for FIG. 1B. In (FIG. 1F), immunoprecipitation was performed using streptavidin-agarose and Western blot performed using eIF4E antibody. In (FIG. 1G), immunoprecipitation was performed using eIF4E antibody, and Western blot performed using eIF4G antibody.
(§2) FIGS. 3A-3H. Uptake, binding and inhibitory effects of [DLys6]GnRH-4EBP fusion peptides. (FIG. 3A) Sequences of [DLys6]GnRH, and wild-type and mutant 4EBP1 peptides fused to the agonist. (FIG. 3B) Western blot of GnRH-RI levels in OVCAR-3, ES-2, MDA-MB-231, BJ, HUVEC and SKOV3 cells. (FIG. 3C) Detection of biotinylated peptides in OVCAR-3 and SKOV3 by Texas Red-conjugated streptavidin at 16 hours after peptide addition (3 micromoles per liter). In (FIGS. 3D and 3E), biotinylated peptides were incubated with OVCAR-3 cell lysate as described in FIG. 1. In (FIG. 3D), peptide was pulled down using streptavidin-agarose. Precipitates (P) and supernatants (S) were analyzed by Western blot using eIF4E antibody. In (FIG. 3E), immunoprecipitation was performed using eIF4E antibody, and Western blot performed using eIF4G antibody. (FIG. 3F) R-Luc and F-Luc activities were assayed in ES-2-DualLuc cells at 6 hours after addition of the indicated concentrations of peptides, and are expressed relative to the respective luciferase activities in cells incubated without peptide. Shown are results of triplicate assays performed independently two times, and the statistical significance of differences in relative R-Luc and F-Luc activities in cells treated with peptide at a concentration of 10 micromoles per liter (FIG. 3G) Cells of GnRH-RI-positive and -negative lines were treated with the indicated concentrations of peptides. […]

[2] = biological target: T2, eIF4E (Homo sapiens, UniProt P06730); assay: Streptavidin-agarose pull-down of biotinylated peptide from OVCAR-3 cell lysate, Western blot with eIF4E antibody; type: binding; details: biotinylated peptide 3 micromoles per liter, 250 micrograms OVCAR-3 cell lysate
T2 construct: endogenous in cells; host or cells: OVCAR-3 cell lysate
Method: as §1, §2

[3] = test system: ES-2-DualLuc cells; assay: Cell-based translation assay with bicistronic R-Luc/F-Luc reporter
Method: (§3) FIGS. 2A-2F. Inhibition of cap-dependent translation and cell growth by TAT-4EBP fusion peptides. (FIG. 2A) Representation of the pIRES-DualLuc bicistronic construct containing Renilla Luciferase (R-Luc) and firefly luciferase (F-Luc) genes. In (FIG. 2B), R-Luc and F-Luc activities were assayed in ES-2-DualLuc cells following treatment for 24 hours with rapamycin and for 3 hours with cycloheximide with the indicated concentrations of these drugs, and expressed relative to the respective luciferase activities in cells incubated without drug. Cell viability was not affected by rapamycin and cycloheximide under these conditions. In (FIG. 2C), R-Luc and F-Luc activities were assayed in ES-2-DualLuc cells following treatment for 6 hours with the indicated concentrations of peptides, and expressed relative to the respective luciferase activities in cells incubated without peptide. Shown are results of triplicate assays performed independently two times, and the statistical significance of differences in relative R-Luc and F-Luc activities in cells treated with peptide at a concentration of 10 micromoles per liter. (FIG. 2D) Viability of OVCAR-3 cells at 3 days after addition of the indicated concentrations of peptides, expressed relative to viability of cells incubated without peptide. Shown are results of triplicate assays performed in two independent experiments, and statistical significances of differences in viability of cells treated with TAT-4EBP1-WT vs. TAT-4EBP1-MT, and of cells treated with TAT-4EBP2-WT vs. TAT-4EBP2-MT at a concentration of 10 micromoles per liter. (FIG. 2E) OVCAR-3 cells at 3 days after peptide addition (10 micromoles per liter) viewed under phase-contrast microscopy. (FIG. 2F) Flow cytometric analysis of staining of terminal deoxynucleotidyl transferase-mediated dUTP nick end labeling (TUNEL) in OVCAR-3 cells at 3 days after peptide addition (10 micromoles per liter). Cells incubated for 3 days in the absence of peptide in medium with and without serum are included as controls.
FIGS. 3A-3H. Uptake, binding and inhibitory effects of [DLys6]GnRH-4EBP fusion peptides. (FIG. 3A) Sequences of [DLys6]GnRH, and wild-type and mutant 4EBP1 peptides fused to the agonist. (FIG. 3B) Western blot of GnRH-RI levels in OVCAR-3, ES-2, MDA-MB-231, BJ, HUVEC and SKOV3 cells. (FIG. 3C) Detection of biotinylated peptides in OVCAR-3 and SKOV3 by Texas Red-conjugated streptavidin at 16 hours after peptide addition (3 micromoles per liter). In (FIGS. 3D and 3E), biotinylated peptides were incubated with OVCAR-3 cell lysate as described in FIG. 1. In (FIG. 3D), peptide was pulled down using streptavidin-agarose. Precipitates (P) and supernatants (S) were analyzed by Western blot using eIF4E antibody. In (FIG. 3E), immunoprecipitation was performed using eIF4E antibody, and Western blot performed using eIF4G antibody. (FIG. 3F) R-Luc and F-Luc activities were assayed in ES-2-DualLuc cells at 6 hours after addition of the indicated concentrations of peptides, and are expressed relative to the respective luciferase activities in cells incubated without peptide. Shown are results of triplicate assays performed independently two times, and the statistical significance of differences in relative R-Luc and F-Luc activities in cells treated with peptide at a concentration of 10 micromoles per liter (FIG. 3G) Cells of GnRH-RI-positive and -negative lines were treated with the indicated concentrations of peptides. Viability at 3 days after peptide addition is expressed relative to viability of cells incubated with no peptide. Shown are results of triplicate assays performed in two independent experiments, and statistical significances of differences in viability of cells treated with wild-type vs. mutant [DLys6]GnRH-4EBP1 peptides at a concentration of 10 micromoles per liter. (FIG. 3H) ES-2 and parental SKOV3 cells at 3 days after peptide addition (30 micromoles per liter) viewed under phase-contrast microscopy. […]

[4] = test system: OVCAR-3 cells; assay: Cell viability assay (crystal violet); type: cell-based; details: OVCAR-3, 3 days after peptide addition, 0.3 to 30 micromoles per liter
Method: as §3, with “Shown are results of triplicate assays performed in two independent experiments, and statistical significances of differences in viability of cells treated with TAT-4EBP1-WT vs. TAT-4EBP1-MT, and of cells treated with TAT-4EBP2-WT vs. TAT-4EBP2-MT at a concentration of 10 micromoles per liter. (FIG. 2E) OVCAR-3 cells at 3 days after peptide addition (10 micromoles per liter) viewed under phase-contrast microscopy. (FIG. 2F) Flow cytometric analysis of staining of terminal deoxynucleotidyl transferase-mediated dUTP nick end labeling (TUNEL) in OVCAR-3 cells at 3 days after peptide addition (10 micromoles per liter). Cells incubated for 3 days in the absence of peptide in medium with and without serum are included as controls.” left out
FIGS. 3A-3H. […] Precipitates (P) and supernatants (S) were analyzed by Western blot using eIF4E antibody. […]

[5] = rapamycin 24 hours, cycloheximide 3 hours

T2 sequence (P06730 whole entry): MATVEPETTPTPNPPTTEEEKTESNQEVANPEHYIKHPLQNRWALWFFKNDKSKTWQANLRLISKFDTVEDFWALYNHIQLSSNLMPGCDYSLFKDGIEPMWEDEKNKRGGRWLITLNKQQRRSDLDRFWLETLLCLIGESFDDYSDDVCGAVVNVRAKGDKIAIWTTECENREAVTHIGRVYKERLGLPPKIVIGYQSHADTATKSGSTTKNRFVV
T1 sequence (P06730 2-217 limits assumed): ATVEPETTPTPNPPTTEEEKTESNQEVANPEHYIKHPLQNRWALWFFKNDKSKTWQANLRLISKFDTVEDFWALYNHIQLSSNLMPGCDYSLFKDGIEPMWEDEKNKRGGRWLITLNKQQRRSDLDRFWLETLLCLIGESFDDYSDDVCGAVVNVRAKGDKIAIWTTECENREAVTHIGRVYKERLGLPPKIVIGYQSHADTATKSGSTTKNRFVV

Compound | inhibition of eIF4E binding to eIF4G [1] | binding of peptide to eIF4E [2] | other results
TAT-4EBP2-MT: TAT-4EBP2 fusion peptide in which Tyr-54, Arg-56 and Leu-59 were substituted by Gly (YGRKKRRQRRRGTRIIGDGKFGLDRRNSPMA) | substantially impaired | substantially impaired | 
CO[C@H]1C[C@@H]2CC[C@@H](C)[C@@](O)(O2)C(=O)C(=O)N2CCCC[C@H]2C(=O)O[C@H]([C@H](C)C[C@@H]2CC[C@@H](O)[C@H](OC)C2)CC(=O)[C@H](C)/C=C(\C)[C@@H](O)[C@@H](OC)C(=O)[C@H](C)C[C@H](C)/C=C/C=C/C=C/1C [rapamycin] |  |  | cell viability under translation assay conditions [3]: not affected
4EBP2-WT: peptide containing the region of 4EBP2 corresponding to residues 49-68 of 4EBP1 (GTRIIYDRKFLLDRRNSPMA) | inhibited eIF4E from binding eIF4G | bound to eIF4E | 
C[C@@H]1C[C@@H]([C@H](O)CC2CC(=O)NC(=O)C2)C(=O)[C@@H](C)C1 [cycloheximide] |  |  | cap-dependent translation (R-Luc read-out) [3, 5]: inhibited both cap-dependent and independent translation; cap-independent translation (F-Luc readout) [3, 5]: inhibited both cap-dependent and independent translation; cell viability under translation assay conditions [3, 5]: not affected
TAT-4EBP2-WT: wild-type 4EBP2 residues fused to cell-penetrating residues of HIV TAT protein (YGRKKRRQRRRGTRIIYDRKFLLDRRNSPMA) |  |  | cell viability / growth [4]: decreased cell viability in a dose-dependent manner; cap-dependent translation (R-Luc read-out) ([3]; peptide 6 hours, 0.3 to 10 micromoles per liter, relative to cells without peptide): also inhibited cap-dependent translation, but was slightly less effective than TAT-4EBP1-WT
TAT-4EBP1-MT: TAT-4EBP1 fusion peptide in which Tyr-54, Arg-56 and Leu-59 were substituted by Gly (YGRKKRRQRRRGTRIIGDGKFGMECRNSPVT) | substantially impaired | substantially impaired | 
